This experiment has as its target T1, transporter associated with antigen processing (TAP), heterodimer of TAP1 and TAP2 (human, UniProt Q03518 1-748; Q03519 1-686).
T1 construct: TAP1, human; TMD0 is in the construct (no density seen for it); TAP2, human; model holds residues 130-681; also called human TAP; source: lysed cells incubated with purified ICP47, solubilised in DDM, purified (IgG Sepharose, Superose 6); not shown: Protein A, C-terminal, cleaved
T1 sequence 1: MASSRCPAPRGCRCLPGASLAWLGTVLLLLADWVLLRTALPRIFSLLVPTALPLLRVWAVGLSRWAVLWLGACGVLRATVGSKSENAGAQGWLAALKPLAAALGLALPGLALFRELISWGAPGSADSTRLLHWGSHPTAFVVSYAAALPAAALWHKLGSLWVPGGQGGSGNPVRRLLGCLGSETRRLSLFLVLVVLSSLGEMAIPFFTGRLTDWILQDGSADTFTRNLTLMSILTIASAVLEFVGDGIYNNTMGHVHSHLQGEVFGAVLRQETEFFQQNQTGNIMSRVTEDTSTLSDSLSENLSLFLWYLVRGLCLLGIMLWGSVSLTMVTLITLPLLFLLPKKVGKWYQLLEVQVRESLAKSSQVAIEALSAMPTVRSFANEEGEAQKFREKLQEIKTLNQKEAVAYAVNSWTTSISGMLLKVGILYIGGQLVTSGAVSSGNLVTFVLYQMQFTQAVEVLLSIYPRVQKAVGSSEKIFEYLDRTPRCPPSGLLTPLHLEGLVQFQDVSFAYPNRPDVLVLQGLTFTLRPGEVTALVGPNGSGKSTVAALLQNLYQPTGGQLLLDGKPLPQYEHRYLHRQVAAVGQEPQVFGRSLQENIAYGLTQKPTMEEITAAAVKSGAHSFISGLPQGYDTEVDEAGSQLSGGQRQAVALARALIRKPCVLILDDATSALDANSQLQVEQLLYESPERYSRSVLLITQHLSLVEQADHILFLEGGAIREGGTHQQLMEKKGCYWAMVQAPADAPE
T1 sequence 2: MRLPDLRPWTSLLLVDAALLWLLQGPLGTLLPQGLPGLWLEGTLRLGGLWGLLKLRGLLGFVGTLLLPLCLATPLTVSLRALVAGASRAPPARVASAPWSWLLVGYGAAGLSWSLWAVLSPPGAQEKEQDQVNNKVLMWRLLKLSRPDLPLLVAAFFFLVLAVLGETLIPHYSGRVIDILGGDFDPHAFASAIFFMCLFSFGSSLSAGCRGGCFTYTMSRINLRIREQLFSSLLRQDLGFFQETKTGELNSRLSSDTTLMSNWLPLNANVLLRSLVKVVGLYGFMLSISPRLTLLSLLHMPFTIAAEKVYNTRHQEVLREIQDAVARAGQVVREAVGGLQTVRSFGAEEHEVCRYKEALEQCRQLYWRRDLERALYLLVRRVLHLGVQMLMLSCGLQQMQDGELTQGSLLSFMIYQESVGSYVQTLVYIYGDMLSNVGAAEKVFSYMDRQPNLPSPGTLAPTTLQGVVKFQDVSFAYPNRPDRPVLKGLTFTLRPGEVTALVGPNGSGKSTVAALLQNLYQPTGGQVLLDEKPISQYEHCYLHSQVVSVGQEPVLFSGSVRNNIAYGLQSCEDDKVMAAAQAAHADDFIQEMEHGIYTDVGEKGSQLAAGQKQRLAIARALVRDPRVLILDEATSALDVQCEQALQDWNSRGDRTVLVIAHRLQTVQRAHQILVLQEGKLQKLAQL
Description: cryo-EM structure; purified TAP/ICP47 complex (2 mg/ml) in 20 mM Hepes pH 7.4, 150 mM NaCl, 2 mM TCEP, 1 mM DDM, 1 mM C12E8; complex formed by incubating lysed Pichia cells co-expressing TAP1 and TAP2 with purified ICP47; 4.0 Å. The settings on record: both partners purified.

B1: ICP47 of herpes simplex virus 1 (natural protein)
chain: MSWALEMADTFLDTMRVGPRTYADVRDEINKRGREDREAARTAVHDPERPLLRSPGLLPEIAPNASLGVAHRRTGGTVTDSPRNPVTR
notes: ICP47, HSV-1; the N-terminal 55 residues are ordered and the C-terminal 33 residues have no density (88 residues together); also called HSV-1 ICP47; source: E. coli, purified via the GST tag
For the molecule B1, the binding result is “binds”.

These data come from PMC5199193, “Structure of the transporter associated with antigen processing trapped by herpes simplex virus” (eLife, 2016).
